# Experiments:
# [1] = pH-STAT beta-lactam hydrolysis assay, substrate amoxicillin; assay type: biochemical; conditions: 37° C., pH=7.0
# Procedure: (§1) The purified proteins were tested on different beta-lactams (amoxicillin (Apollo Scientific), Augmentin® (GlaxoSmithKline) and Ceftriaxone (Rocéphine®, Roche)). The assays are carried out at pH-STAT (Titrino 2.5, Metrohm) in a reaction volume of 25 ml at 37° C. and pH=7.0. The substrates are prepared at 4 g/l in a 0.3 mM Tris buffer, 150 mM NaCl. The enzyme hydrolysis of the beta-lactam nuclei releases an acid and induces a drop in the pH. The principle of the assay is to compensate for the acidification by the addition of 0.1 N sodium hydroxide so as to remain at pH=7.0. In these conditions, one unit corresponds to 1 μmole of sodium hydroxide added per minute, that is, one μmole of beta-lactam hydrolysed per minute. Table 3 below lists the specific activities measured for each protein on the three substrates (mean of 6 replicates).
# [2] = pH-STAT beta-lactam hydrolysis assay, substrate Augmentin; assay type: biochemical; conditions: 37° C., pH=7.0
# Procedure: as §1
# [3] = pH-STAT beta-lactam hydrolysis assay, substrate ceftriaxone; assay type: biochemical; conditions: pH=7.0; for Specific activity, substrate Ceftriaxone: 37° C.
# Procedure: as §1
# The purified proteins were tested on different antibiotics: Ceftriaxone (RocéphineED, Roche) for the beta-lactams and kanamycin for the Aminoglycosides. The assays on ceftriaxone were carried out at pH-STAT (Titrino 2.5, Metrohm) in a reaction volume of 25 ml at 37° C. and pH=7.0. The substrates are prepared at 4 g/l in a 0.3 mM Tris buffer, 150 mM NaCl. The enzyme hydrolysis of the beta-lactam nuclei releases an acid and results in a drop in the pH. The principle of the assay is to compensate this acidification by the addition of 0.1 N sodium hydroxide so as to remain at pH=7.0. In these conditions, one unit corresponds to 1 μmol of sodium hydroxide added per minute, that is one μmol of beta-lactam hydrolyzed per minute.
# [4] = Acetyl-transferase indirect colorimetric assay (acetyl-CoA, DTNB); assay type: biochemical; conditions: Table 12; 500 μM Kanamycin, 500 μM AcetylCoA, 250 μM DTNB; 1 unit = one nanomole of TNB released per minute at 37° C.; n=6
# Procedure: The activity of acety-transferase is measured by an indirect colorimetric assay with acetyl-CoA (Sigma-Aldrich) as acetyl group donor, Kanamycin as acceptor and Elleman reagent (DTNB, Sigma-Aldrich) to titrate the CoEnzymeA reduced (—SH) molecules released during the enzyme reaction [Ref]. The reaction takes place on a microtitration plate with increasing quantities of purified enzymes, in a final volume of 200 μl and with concentrations of 500 μM Kanamycin, 500 μM AcetylCoA and 250 μM DTNB. In these experimental conditions, the ion TNB^2 absorbs at 412 nm with an ε(λ=412 nm) apparent 19 000 M^−1.well^−1 (well of a 96 well plate filled with 200 μl) and 1 unit corresponds to one nanomole of TNB^2 released per minute at 37° C.
# E. coli BL21(DE3)pLysS = assay: MICs of beta-lactams on LB-agar for E. coli expression strains (Example 4); assay type: cell-based, Escherichia coli; conditions: Table 10; BL21(DE3)pLysS + protein, IPTG induced; LB-agar, 37° C. overnight
# Procedure: The pre-cultures are then inoculated at 1/40th in 5 ml of LB+50 μg/ml Kanamycin medium and when the OD600 reaches a value of 0.6 (about 2 hours), the production of protein is induced by the addition of final IPTG 1 mM and continues for 1.5 hours at 37° C. with stirring at 200 rpm.
# The dishes were incubated at 37° C. overnight and the results were recorded the following day. The MICs correspond to the lowest concentration of antibiotic at which the highest inoculum doesn't grow.
# [5] = Table 5 (Example 2), proteins produced in Pichia pastoris
# [6] = Table 7 (Example 3), proteins produced in Pichia pastoris
# [7] = Table 3, proteins produced in Pichia pastoris, substrate 4 g/l, mean of 6 replicates
# [8] = Table 9, proteins produced in Escherichia coli BL21(DE3) pLysS
molecule,measurement,setting,value
"CTX-M16: SEQ ID 2; class A β-lactamase (cefotaximase), Genbank AAK32961, 263 aa; constituent enzyme (protein, listed as Escherichia coli) QTSAVQQKLAALEKSSGGRLGVALIDTADNTQVLYRGDERFPMCSTSKVMAAAAVLKQSETQKQLLNQPVEIKPADLVNYNPIAEKHVNGTMTLAELSAAALQYSDNTAMNKLIAQLGGPGGVTAFARAIGDETFRLDRTEPTLNTAIPGDPRDTTTPRAMAQTLRQLTLGHALGETQRAQLVTWLKGNTTGAASIRAGLPTSWTAGDKTGSGGYGTTNDIAVIWPQGRAPLVLVTYFTQPQQNAESRRDVLASAARIIAEGL","Specific activity, substrate Amoxicillin","[1]; Table 3, proteins produced in Pichia pastoris, substrate 4 g/l, 1 U = 1 μmole beta-lactam hydrolysed per minute, mean of 6 replicates",31 ± 2 U/mg
same,"Specific activity, substrate Amoxicillin",[1]; [5],31 ± 2 U/mg
same,"Specific activity, substrate Amoxicillin",[1]; [6],31 ± 2 U/mg
same,"Specific activity, substrate Amoxicillin","[1]; Table 9, proteins produced in Escherichia coli BL21(DE3) pLysS (periplasm, non-glycosylated)",21 ± 1 U/mg
same,"Specific activity, substrate Augmentin",[2]; [7],0 U/mg
same,"Specific activity, substrate Augmentin",[2]; [5],0 U/mg
same,"Specific activity, substrate Augmentin",[2]; [6],0 U/mg
same,"Specific activity, substrate Augmentin",[2]; [8],0 U/mg
same,"Specific activity, substrate Ceftriaxone",[3]; [7],306 ± 44 U/mg
same,"Specific activity, substrate Ceftriaxone",[3]; [5],306 ± 44 U/mg
same,"Specific activity, substrate Ceftriaxone",[3]; [6],306 ± 44 U/mg
same,"Specific activity, substrate Ceftriaxone",[3]; [8],158 ± 14 U/mg
same,"Specific activity, substrate Cetriaxone","[3]; Table 12, pH-STAT 37° C., AAC and fusion from E. coli, CTX-M16 from P. pastoris, n=6",336 ± 5 U/mg
same,"Specific activity, substrate Kanamycin",[4],0 U/mg
same,MIC of Amoxicillin for E. coli strain expressing the protein,E. coli BL21(DE3)pLysS,>1024 µg/mL
same,MIC of Augmentin for E. coli strain expressing the protein,E. coli BL21(DE3)pLysS,4 µg/mL
same,MIC of Rocephine for E. coli strain expressing the protein,E. coli BL21(DE3)pLysS,512 µg/mL
